Test results reported in paper PMC5978004.

Target: human MALT1 (mammalian expression) (human) (UniProt Q9UDY8)
Chain of UniProt Q9UDY8 (Q9UDY8 whole entry): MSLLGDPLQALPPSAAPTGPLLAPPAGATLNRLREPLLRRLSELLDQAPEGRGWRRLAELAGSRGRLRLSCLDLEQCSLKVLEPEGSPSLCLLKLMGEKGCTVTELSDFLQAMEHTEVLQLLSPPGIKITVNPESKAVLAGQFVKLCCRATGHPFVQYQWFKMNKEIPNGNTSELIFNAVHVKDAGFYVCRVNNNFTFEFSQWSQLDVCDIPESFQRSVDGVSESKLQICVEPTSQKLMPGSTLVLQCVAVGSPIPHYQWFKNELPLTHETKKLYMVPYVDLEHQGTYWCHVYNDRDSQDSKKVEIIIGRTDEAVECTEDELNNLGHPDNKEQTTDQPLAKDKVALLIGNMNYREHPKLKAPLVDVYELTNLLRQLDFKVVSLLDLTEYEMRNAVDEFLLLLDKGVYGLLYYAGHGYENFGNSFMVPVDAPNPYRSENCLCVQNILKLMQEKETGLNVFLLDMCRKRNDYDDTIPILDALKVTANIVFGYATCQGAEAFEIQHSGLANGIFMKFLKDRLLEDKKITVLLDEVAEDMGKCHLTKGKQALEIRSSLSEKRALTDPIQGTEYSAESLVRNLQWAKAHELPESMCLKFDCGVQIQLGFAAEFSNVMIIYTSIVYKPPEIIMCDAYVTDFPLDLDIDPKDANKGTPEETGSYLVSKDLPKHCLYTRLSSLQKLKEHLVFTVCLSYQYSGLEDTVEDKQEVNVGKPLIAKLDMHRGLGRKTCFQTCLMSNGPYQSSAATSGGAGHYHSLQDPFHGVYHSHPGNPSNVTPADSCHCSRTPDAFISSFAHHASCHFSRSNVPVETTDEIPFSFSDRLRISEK

human MALT1-dependent NF-κB luciferase reporter induction in MALT1-deficient HEK293T cells with or without human MALT1: 2.5 fold
Substance: Nematostella vectensis Bcl10 (NvBcl10), E-tagged, in pCAGGS (natural protein)
